From patent US20250018039A1 (published 2025)

Target: T1, wild-type human RAS (KRAS) peptide on HLA-A*03:01 (human)
T1 peptide: VVVGAGGVGK
Test: cytokine release
Protocol: Cos7 cells transduced with human HLA A*03:01 were independently pulsed with the G12V RAS peptide […] (SEQ ID NO: 33) or the corresponding wild-type peptide […] The transduced cells (effector cells) were co-cultured with the peptide-pulsed target cells. Interferon-gamma secretion was measured.

B1: TCR 807 (TCR, V domains shown)
Valpha: QQKVQQSPESLSVPEGGMASLNCTSSDRNFQYFWWYRQHSGEGPKALMSIFSDGDKKEGRFTAHLNKASLHVSLHIRDSQPSDSALYFCAARPGTQVVGQLTFGRGTRLQVYA
Vbeta: AQTIHQWPVAEIKAVGSPLSLGCTIKGKSSPNLYWYWQATGGTLQQLFYSITVGQVESVVQLNLSASRPKDDQFILSTEKLLLSHSGFYLCAWRDRPSSYEQYFGPGTRLTVL
B1: no recognition.
